In general, IC50 refers to the concentration needed to halve the response being measured.

Results on 10 molecules are retold here after patent US20110129457A1 (CURIS, published 2011).

B2: Hhip1β12 (β-propeller-EGF1-EGF2, residues 193-667), C-terminal His6-tag (receptor)
chain: SNYLDQMEEYDKVEEISRKHKHNCFCIQEVVSGLRQPVGALHSGDGSQRLFILEKEGYVKILTPEGEIFKEPYLDIHKLVQSGIKGGDERGLLSLAFHPNYKKNGKLYVSYTTNQERWAIGPHDHILRVVEYTVSRKNPHQVDLRTARVFLEVAELHRKHLGGQLLFGPDGFLYIILGDGMITLDDMEEMDGLSDFTGSVLRLDVDTDMCNVPYSIPRSNPHFNSTNQPPEVFAHGLHDPGRCAVDRHPTDININLTILCSDSNGKNRSSARILQIIKGKDYESEPSLLEFKPFSNGPLVGGFVYRGCQSERLYGSYVFGDRNGNFLTLQQSPVTKQWQEKPLCLGTSGSCRGYFSGHILGFGEDELGEVYILSSSKSMTQTHNGKLYKIVDPKRPLMPEECRATVQPAQTLTSECSRLCRNGYCTPTGKCCCSPGWEGDFCRTAKCEPACRHGGVCVRPNKCLCKKGYLGPQCEHHHHHH

In experiment [1] the target is T1, full length human Patched-1 on 293 cells (Ptch1-293 clone 10) (human, UniProt Q13635 1-1447).
T1 construct: whole, on cells; also called Ptch1 expressing cells; Ptch1-293 cells
T1 sequence (looked up): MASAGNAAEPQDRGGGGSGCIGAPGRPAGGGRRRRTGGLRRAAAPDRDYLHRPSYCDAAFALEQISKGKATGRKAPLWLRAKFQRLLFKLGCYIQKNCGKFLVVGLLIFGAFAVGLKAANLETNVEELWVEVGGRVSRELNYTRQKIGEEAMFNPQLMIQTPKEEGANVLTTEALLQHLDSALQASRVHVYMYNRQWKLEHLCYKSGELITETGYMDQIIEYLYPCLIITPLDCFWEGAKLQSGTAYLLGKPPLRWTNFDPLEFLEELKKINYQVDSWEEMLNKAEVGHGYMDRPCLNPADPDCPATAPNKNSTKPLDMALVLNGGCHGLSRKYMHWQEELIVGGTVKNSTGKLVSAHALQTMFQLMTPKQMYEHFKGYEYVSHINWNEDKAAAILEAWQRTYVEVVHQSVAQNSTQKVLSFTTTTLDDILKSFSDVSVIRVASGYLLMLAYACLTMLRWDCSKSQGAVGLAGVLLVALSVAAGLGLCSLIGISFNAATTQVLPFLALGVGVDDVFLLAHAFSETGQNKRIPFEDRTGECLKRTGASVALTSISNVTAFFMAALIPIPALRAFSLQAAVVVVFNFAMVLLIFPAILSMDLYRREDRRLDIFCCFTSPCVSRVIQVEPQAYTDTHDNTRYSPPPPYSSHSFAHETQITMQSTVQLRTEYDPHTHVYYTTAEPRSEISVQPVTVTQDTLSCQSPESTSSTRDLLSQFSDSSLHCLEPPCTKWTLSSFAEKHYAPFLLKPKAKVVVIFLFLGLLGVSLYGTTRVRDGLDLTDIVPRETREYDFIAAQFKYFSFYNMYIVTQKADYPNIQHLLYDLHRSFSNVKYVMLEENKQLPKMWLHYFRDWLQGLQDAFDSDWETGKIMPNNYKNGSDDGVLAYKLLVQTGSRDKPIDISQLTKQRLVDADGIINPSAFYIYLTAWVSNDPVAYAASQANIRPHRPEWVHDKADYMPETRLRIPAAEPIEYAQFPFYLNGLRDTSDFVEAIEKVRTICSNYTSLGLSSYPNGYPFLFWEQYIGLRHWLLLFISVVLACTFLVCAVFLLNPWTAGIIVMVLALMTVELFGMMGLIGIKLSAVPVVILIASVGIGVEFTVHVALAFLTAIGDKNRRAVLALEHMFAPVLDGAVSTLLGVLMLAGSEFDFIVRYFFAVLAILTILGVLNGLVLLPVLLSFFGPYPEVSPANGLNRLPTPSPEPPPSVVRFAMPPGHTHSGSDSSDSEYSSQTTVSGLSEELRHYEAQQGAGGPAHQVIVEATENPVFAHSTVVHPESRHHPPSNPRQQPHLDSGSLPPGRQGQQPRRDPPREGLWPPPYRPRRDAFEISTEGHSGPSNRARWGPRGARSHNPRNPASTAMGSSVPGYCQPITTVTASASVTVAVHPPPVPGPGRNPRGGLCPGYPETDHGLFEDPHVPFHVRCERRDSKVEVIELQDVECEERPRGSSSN
The experiment in a line: FACS competition: unlabeled Ihh against 1 nM Shh649 for Ptch1-expressing 293 cells.

The target of experiment [2] is B2. The experiment in a line: competition ELISA: unlabeled Ihh against 5 nM biotinylated ShhN-Cys for immobilized Hhip1β12. Background: An ELISA detects its analyte on a solid surface through an enzyme-linked reagent.
Experiment [3] has as its target B2. The experiment in a line: competition ELISA as in paragraph 570; the legend gives Ihh and Shh the other way round.
The target of experiment [4] is B2. Nature of the experiment: competition ELISA: unlabeled Hh against 5 nM biotinylated-ShhN-Cys for immobilized Hhip1β12.
In experiment [5] the target is T1, full length human Patched-1 on 293 …. The experiment in a line: FACS competition: 1 nM Shh649 with inhibitor on Ptch1 expressing cells.
The target in experiment [6] is fully lipid-modified Shh secreted by human HT29 cells (human, UniProt Q15465 24-197, N-terminal palmitoyl and C-terminal cholesterol modifications). Nature of the experiment: cell-based or functional assay.
Experiment [7] deals with T2, Shh-Flag (human Shh residues 25-197 with C-terminal Flag-Tag) (human, UniProt Q15465 25-197).
T2 construct: range 25-197; not shown: C-terminal Flag-Tag
Nature of the experiment: competition ELISA: Hip-L2 peptide dilution with 800 nM Hhip protein on Shh-Flag captured by anti-Flag M2, anti-His-HRP detection.

B1: Human Ihh (residues 29-202), N-terminal His6-tag (ligand)
chain: not shown
notes: range 29-202; also called His6-Ihh; Indian Hedgehog
On to B1, for which the “IC50 (read off the curve)” value in experiment [1] was roughly 3 nM; in experiment [2], roughly 90 nM. The values for the IC50 in experiment [3], in experiment [4] and in experiment [5] were 53 nM, 87 nM and 1.1 nM, respectively.

With B2, the “IC50, inhibition of Gli-luciferase activity in HT29/S12 co-culture” value in experiment [6] is 5 nM.

B3: Hhip1β12 D383A (receptor)
chain: SNYLDQMEEYDKVEEISRKHKHNCFCIQEVVSGLRQPVGALHSGDGSQRLFILEKEGYVKILTPEGEIFKEPYLDIHKLVQSGIKGGDERGLLSLAFHPNYKKNGKLYVSYTTNQERWAIGPHDHILRVVEYTVSRKNPHQVDLRTARVFLEVAELHRKHLGGQLLFGPDGFLYIILGDGMITLDDMEEMAGLSDFTGSVLRLDVDTDMCNVPYSIPRSNPHFNSTNQPPEVFAHGLHDPGRCAVDRHPTDININLTILCSDSNGKNRSSARILQIIKGKDYESEPSLLEFKPFSNGPLVGGFVYRGCQSERLYGSYVFGDRNGNFLTLQQSPVTKQWQEKPLCLGTSGSCRGYFSGHILGFGEDELGEVYILSSSKSMTQTHNGKLYKIVDPKRPLMPEECRATVQPAQTLTSECSRLCRNGYCTPTGKCCCSPGWEGDFCRTAKCEPACRHGGVCVRPNKCLCKKGYLGPQCEHHHHHH
As for B3, in experiment [6], the “IC50, Gli-luciferase co-culture assay” value was roughly 10 nM and the “fold of IC50 against wildtype Hipβ12, Gli-luciferase co-culture assay” value came to 2 fold.

B4: Hhip1β12 D383R (receptor)
chain: SNYLDQMEEYDKVEEISRKHKHNCFCIQEVVSGLRQPVGALHSGDGSQRLFILEKEGYVKILTPEGEIFKEPYLDIHKLVQSGIKGGDERGLLSLAFHPNYKKNGKLYVSYTTNQERWAIGPHDHILRVVEYTVSRKNPHQVDLRTARVFLEVAELHRKHLGGQLLFGPDGFLYIILGDGMITLDDMEEMRGLSDFTGSVLRLDVDTDMCNVPYSIPRSNPHFNSTNQPPEVFAHGLHDPGRCAVDRHPTDININLTILCSDSNGKNRSSARILQIIKGKDYESEPSLLEFKPFSNGPLVGGFVYRGCQSERLYGSYVFGDRNGNFLTLQQSPVTKQWQEKPLCLGTSGSCRGYFSGHILGFGEDELGEVYILSSSKSMTQTHNGKLYKIVDPKRPLMPEECRATVQPAQTLTSECSRLCRNGYCTPTGKCCCSPGWEGDFCRTAKCEPACRHGGVCVRPNKCLCKKGYLGPQCEHHHHHH
On to B4, for which, in experiment [6], the “IC50, Gli-luciferase co-culture assay” value came to 57 nM and the “fold change of IC50, Gli-luciferase co-culture assay” value is roughly 13 fold.

B5: Human Dhh (residues 24-198), N-terminal His6-tag (ligand)
chain: not shown
notes: range 24-198; also called Desert Hedgehog
Turning to B5, the IC50 in experiment [4] came to 40 nM.

B6: octyl-Ihh (octylated Ihh wildtype) (ligand)
chain: not shown
modifications: octylated (site not stated)
Regarding B6, the IC50 in experiment [5] stood at 0.64 nM.

B7: Ihh T154I (type A1 brachydactyly mutant) (ligand)
chain: not shown
As to B7, the IC50 in experiment [5] came to 140 nM.

B8: octyl-T154I (octylated Ihh T154I) (ligand)
chain: not shown
modifications: octylated (site not stated)
Regarding B8, in experiment [5], the IC50 was 10 nM.

B9: Hip-L2 peptide (GDGMITLDDMEEMDGLSDFTG) of the competition ELISA (peptide)
peptide: GDGMITLDDMEEMDGLSDFTG
notes: also called Hhip1-L2 peptide; peptide derived from the Hhip1β12 L2 loop
B9 displayed an IC50 in experiment [7] of 150000 nM.

B10: Hhip1β1 (β-propeller-EGF1, residues 193-637), C-terminal His6-tag (receptor)
chain: SNYLDQMEEYDKVEEISRKHKHNCFCIQEVVSGLRQPVGALHSGDGSQRLFILEKEGYVKILTPEGEIFKEPYLDIHKLVQSGIKGGDERGLLSLAFHPNYKKNGKLYVSYTTNQERWAIGPHDHILRVVEYTVSRKNPHQVDLRTARVFLEVAELHRKHLGGQLLFGPDGFLYIILGDGMITLDDMEEMDGLSDFTGSVLRLDVDTDMCNVPYSIPRSNPHFNSTNQPPEVFAHGLHDPGRCAVDRHPTDININLTILCSDSNGKNRSSARILQIIKGKDYESEPSLLEFKPFSNGPLVGGFVYRGCQSERLYGSYVFGDRNGNFLTLQQSPVTKQWQEKPLCLGTSGSCRGYFSGHILGFGEDELGEVYILSSSKSMTQTHNGKLYKIVDPKRPLMPEECRATVQPAQTLTSECSRLCRNGYCTPTGKCCCSPGWEGDFCRTAHHHHHH
In the case of B10, in experiment [6], the “IC50, inhibition of Gli-luciferase activity in HT29/S12 co-culture” value is 20.3 nM and the “fold of IC50 against Hhip1ECD, Gli-luciferase co-culture” value is roughly 4 fold.
